Patent US20210171640A1 (Janssen / Centocor, published 2021)
Positions count from the first letter of the chain named.

Tests used:
[1] = biological target: T1, human VISTA expressed on cells (human, UniProt Q9H7M9 33-295); test: cell-based or functional assay
T1 sequence: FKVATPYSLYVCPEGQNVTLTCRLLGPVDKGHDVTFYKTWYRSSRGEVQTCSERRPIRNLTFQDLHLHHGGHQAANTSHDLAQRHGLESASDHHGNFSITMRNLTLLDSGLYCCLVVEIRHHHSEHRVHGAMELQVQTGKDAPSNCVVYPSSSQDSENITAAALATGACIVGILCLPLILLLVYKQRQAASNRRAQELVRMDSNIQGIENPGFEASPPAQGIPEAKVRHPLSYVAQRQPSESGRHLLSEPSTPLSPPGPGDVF

[2] = biological target: T1, human VISTA expressed on cells; test: cell-based or functional assay; remark: listed apart in the source
[3] = biological target: T1, human VISTA expressed on cells; test: cell-based or functional assay; remark: listed apart in the source
[4] = biological target: T2, cynomolgus VISTA extracellular domain (cynomolgus, UniProt A0A7N9IB00 33-194); test: ProteOn SPR
T2 construct: extracellular domain; also called SB0361 (cyno); cyno VISTA ECD
T2 sequence: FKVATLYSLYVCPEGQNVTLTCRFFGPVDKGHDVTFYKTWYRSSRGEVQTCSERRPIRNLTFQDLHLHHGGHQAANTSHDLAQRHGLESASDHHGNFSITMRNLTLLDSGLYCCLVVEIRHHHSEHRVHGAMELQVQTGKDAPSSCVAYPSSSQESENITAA
Method: (§1) Antibodies were captured on ProteOn chips using anti-IgG Fc coated surfaces. […] The antigens were allowed to bind/associate to the antibody-coated chips for 4 minutes after which time dissociation was monitored for 30 minutes. Chips were regenerated with two treatments of 100 mM phosphoric acid for 18 seconds. All experiments were run at 25° C. and data was fit to 1:1 Langmuir binding model.

[5] = biological target: T3, human VISTA extracellular domain (human, UniProt Q9H7M9 33-194); test: ProteOn SPR
T3 construct: also called SB0361 (human); human VISTA ECD
T3 sequence: T2 sequence with L6P, F24L, F25L, S145N, A148V, E155D
Method: as §1

B1: VSTB95 (antibody, human IgG1, kappa, V domains shown)
VH: EVQLVESGGGLVQPGGSLRLSCAASGFTFRNYGMSWVRQAPGKGLEWVASIISGGSYTYYPDSVKGRFTISRDNAKNSLYLQMNSLRAEDTAVYYCARIYDHDGDYYAMDYWGQGTTVTVSS
VL: DIVMTQSPLSLPVTPGEPASISCRSSQSIVHSNGNTYLEWYLQKPGQSPQLLIYKVSNRFSGVPDRFSGSGSGTDFTLKISRVEAEDVGVYYCFQGSHVPWTFGQGTKLEIKR
IC50, IFN-γ in the SEB assay [1]: 0.05 log10 of antibody concentration
EC50 IFNγ production, MLR [2]: 1.67 µg/mL
IC50, IFN-γ in the MLR [3]: 0.22 log10 of antibody concentration

B2: VSTB50 (antibody, human IgG1, kappa, V domains shown)
VH: QVQLVQSGSELKKPGASVKVSCKASGYTFTNYGLNWVRQAPGQGLEWMGWINPYTGEPTYADDFKGRFVFSLDTSVSTAYLQICSLKAEDTAVYYCAREGYGNYIFPYWGQGTLVTVSS
VL: DIVMTQTPLSLSVTPGQPASISCRASESVDTYANSLMHWYLQKPGQPPQLLIYRASNLESGVPDRFSGSGSGTDFTLKISRVEAEDVGVYYCQQTNEDPRTFGQGTKLEIKR
IC50, IFN-γ in the SEB assay [1]: 1.69 log10 of antibody concentration
EC50 IFNγ production, MLR [2]: 1.14 µg/mL
IC50, IFN-γ in the MLR [3]: 0.06 log10 of antibody concentration

B3: VSTB53 (antibody, human IgG1, kappa, V domains shown)
VH: QVQLVQSGAEVKKPGASVKVSCKASGYTFTHYTIHWVRQAPGQGLEWMGYIIPSSGYSEYNQKFKDRVTMTRDTSTSTVYMELSSLRSEDTAVYYCARGAYDDYYDYYAMDYWGQGTLVTVSS
VL: B1 VL with S28T, G96A
IC50, IFN-γ in the SEB assay [1]: -1.05 log10 of antibody concentration
EC50 IFNγ production, MLR [2]: 1.88 µg/mL
IC50, IFN-γ in the MLR [3]: 0.27 log10 of antibody concentration

B4: VSTB60 (antibody, human IgG1, kappa, V domains shown)
VH: B2 VH with L34M, N35T, P53T, P58S, E99D, G100Y, N103I, I105V, F106S, P107A
VL: B2 VL with T31N, L36F, P47S, T95S, N96H, R100Y
EC50 IFNγ production, MLR [2]: 2.48 µg/mL
IC50, IFN-γ in the MLR [3]: 0.4 log10 of antibody concentration

B5: VSTB116 (antibody, human IgG1, kappa, V domains shown)
VH: QVQLVQSGAEVKKPGSSVKVSCKASGGTFSSYAISWVRQAPGQGLEWMGGIIPIFGTANYAQKFQGRVTITADESTSTAYMELSSLRSEDTAVYYCARSSYGWSYEFDYWGQGTLVTVSS
VL: DIQMTQSPSSLSASVGDRVTITCRASQSINTNLNWYQQKPGKAPKLLIYAASSLQSGVPSRFSGSGSGTDFTLTISSLQPEDFATYYCQQARDTPITFGQGTKVEIKR
IC50, IFN-γ in the SEB assay [1]: -0.35 log10 of antibody concentration
EC50 IFNγ production, MLR [2]: 0.69 µg/mL
IC50, IFN-γ in the MLR [3]: -0.16 log10 of antibody concentration

B6: VSTB103 (antibody, V domains shown)
VH: EVQLVQSGAEVKKPGESLKISCKGSGYSFTSYWIGWVRQMPGKGLEWMGIIYPGDSDTRYSPSFQGQVTISADKSISTAYLQWSSLKASDTAMYYCARDDALYGGYYLDYWGQGTLVTVSS
VL: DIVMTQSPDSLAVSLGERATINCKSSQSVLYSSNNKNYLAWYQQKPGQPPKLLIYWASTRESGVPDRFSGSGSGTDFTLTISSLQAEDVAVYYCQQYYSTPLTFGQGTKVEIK
Kd [4]: 0.302 nM
koff [4]: 0.00018 s⁻¹
kon [4]: 598000 M⁻¹ s⁻¹
Kd [5]: 0.636 nM
koff [5]: 0.000336 s⁻¹
kon [5]: 528000 M⁻¹ s⁻¹

B7: VSTB74 (antibody, V domains shown)
VH: QMQLVQSGPEVKKPGTSVKVSCKASGYIFTDYNIDWVRQARGQRLEWIGDINPKYDSTRYNQKFKGRVTITRDMSTSTAYMELSSLRSEDTAVYYCAADGSSAMDYWGQGTTVTVSS
VL: DIVMTQSPDSLAVSLGERATINCKSSQSLLNSGHQKNYLAWYQQKPGQPPKLLIYGASTRESGVPDRFSGSGSGTDFTLTISSLQAEDVAVYYCQNDHRYPLTFGQGTKLEIKR
Kd [4]: 0.347 nM
koff [4]: 0.000144 s⁻¹
kon [4]: 415000 M⁻¹ s⁻¹
Kd [5]: 0.562 nM
koff [5]: 0.000223 s⁻¹
kon [5]: 397000 M⁻¹ s⁻¹
